According to US20220073616A1 (Merck KGaA, published 2022):
Like-named read-outs stand apart in the source and are kept apart here.

Tests used:
[1] = biological target: T1, T Cell Immunoglobulin and Mucin Domain-3 (TIM-3) on human blood cells (human, UniProt Q8TDQ0 22-301); assay: Flow cytometry on human whole blood, target occupancy on CD14+ monocytes, donor KP46318 (assigned by elimination of the other line styles). Unoccupied TIM-3 was detected with the competing anti-TIM-3 (2E2)-APC.
T1 construct: whole, on cells; also called TIM-3 on CD14+ monocytes; HAVCR2

[2] = biological target: T1, T Cell Immunoglobulin and Mucin …; assay: Flow cytometry on human whole blood, target occupancy on CD14+ monocytes, donor KP46315. Unoccupied TIM-3 was detected with the competing anti-TIM-3 (2E2)-APC.
[3] = biological target: T2, rhTIM-3-Fc AF647 (human, UniProt Q8TDQ0 22-200, AF647 label); assay: flow cytometry; M6903 pre-incubated with rhTIM-3-Fc AF647, inhibition of its binding to PtdSer on apoptotic Jurkat cells
T2 construct: also called rhTIM-3 AF647; not shown: Fc part

[4] = biological target: T1, T Cell Immunoglobulin and Mucin …; assay: flow cytometry, target occupancy on CD14+ monocytes in human whole blood; unoccupied TIM-3 detected with the competing anti-TIM-3(2E2)-APC; average of 10 donors
[5] = biological target: T1, T Cell Immunoglobulin and Mucin …; assay: Flow cytometry on human whole blood, target occupancy on CD14+ monocytes, donor KP46231. Unoccupied TIM-3 was detected with the competing anti-TIM-3 (2E2)-APC.
[6] = biological target: T3, wild-type human TIM-3 (hu TIM-3) (human, UniProt Q8TDQ0 22-200, limits assumed); assay: SPR (Biacore 4000), antibody captured via anti-human Fc
T3 construct: Soluble protein used for SPR; also called wild-type TIM-3

[7] = biological target: T3, wild-type human TIM-3 (hu TIM-3); assay: as above; remark: listed apart in the source

EC50 (read off the curve) [1]: ~0.07 µg/mL
EC50 (read off the curve) [2]: ~0.07 µg/mL
IC50 [3]: 4.44 nM
EC50 [4]: 0.111 µg/mL
EC50 (read off the curve) [5]: ~0.07 µg/mL
Kd [6]: 5.7 nM
Kd [7]: 6.2 nM
B1: M6903 (anti-TIM3-3903E11(VL1.3,VH1.2)-IgG2h(FN-AQ,322A)-delK) (antibody, V domains shown)
VH: not shown
VL: QSALTQPRSVSGSPGQSVTISCTGTSSDVGGYNYVSWYQQHPGKAPKLMIYDVSKRPSGVPDRFSGSKSGNTASLTISGLQAEDEADYYCSSYADSVVFGGGTKVTVLG
notes: Anti-TIM-3 (A16-019-1), used in the target occupancy assay, is said to be identical to M6903 but produced in Expi293F instead of CHOK1SV cells; it is kept under this molecule; also called 3903E11 (VL1.3,VH1.2)-IgG2h(FN-AQ,322A)-delK antibody; anti-TIM-3 (A16-019-1)
